Results on two molecules are retold here after PMC7884425, “HPF1 remodels the active site of PARP1 to enable the serine ADP-ribosylation of histones” (Nature Communications, 2021).

Where a chain is given by its changes, count along the chain named.

The chains are these.
B1: human HPF1 (histone PARylation factor 1), wild-type (natural protein, UniProt Q9NWY4 1-346, looked up)
chain: MVGGGGKRRPGGEGPQCEKTTDVKKSKFCEADVSSDLRKEVENHYKLSLPEDFYHFWKFCEELDPEKPSDSLSASLGLQLVGPYDILAGKHKTKKKSTGLNFNLHWRFYYDPPEFQTIIIGDNKTQYHMGYFRDSPDEFPVYVGINEAKKNCIIVPNGDNVFAAVKLFLTKKLREITDKKKINLLKNIDEKLTEAARELGYSLEQRTVKMKQRDKKVVTKTFHGAGLVVPVDKNDVGYRELPETDADLKRICKTIVEAASDEERLKAFAPIQEMMTFVQFANDECDYGMGLELGMDLFCYGSHYFHKVAGQLLPLAYNLLKRNLFAEIIEEHLANRSQENIDQLAA
notes: HPF1 (C4orf27), human; TEV site ENLYFQG between the His tag and the protein; the tag was removed with TEV protease; also called C4orf27; not shown: His6, N-terminal, cleaved
B2: human PARP1-CAT ΔHD (661-678-GSGSGSGG-787-1014) (domain or fragment)
chain: TKSKLPKPVQDLIKMIFDGSGSGSGGKDPIDVNYEKLKTDIKVVDRDSEEAEIIRKYVKNTHATTHNAYDLEVIDIFKIEREGECQRYKPFKQLHNRRLLWHGSRTTNFAGILSQGLRIAPPEAPVTGYMFGKGIYFADMVSKSANYCHTSQGDPIGLILLGEVALGNMYELKHASHISKLPKGKHSVKGLGKTTPDPSANISLDGVDVPLGTGISSGVNDTSLLYNEYIVYDIAQVNLKYLLKLKFNFKTSLW
notes: PARP1, human, catalytic domain, residues 661-678; linker that replaces residues 679-786 (most of the HD subdomain); PARP1, human, catalytic domain (ART), residues 787-1014; also called CAT△HD; not shown: His6, N-terminal, cleaved

Common to all, as to assay: ITC; HPF1 wild-type or mutant 0.3 or 0.4 mM in the syringe, PARP1 CAT-ΔHD (or full-length CAT) 0.02 mM in the cell; 25 °C; 20 mM Tris-pH 8.0, 150 mM NaCl, 1 mM TCEP, 1 mM MgCl2
Settings in all cases: both partners purified
Background: ITC needs no label: the signal is the heat of the interaction.

Experiment [1] has as its target B2.
In experiment [2] the target is B1.
In experiment [3] the target is B1. This is another data set of the same source.
In a further experiment the target is T1, human HPF1 K307S (human, UniProt Q9NWY4 1-346, K307S).
T1 construct: HPF1, human; not shown: His6, N-terminal, cleaved
T1 sequence (looked up): B1 chain with K307S

The next experiment addresses T2, human HPF1 E138K (human, UniProt Q9NWY4 1-346, E138K).
T2 construct: HPF1, human; not shown: His6, N-terminal, cleaved
T2 sequence (looked up): B1 chain with E138K

Another experiment addresses T3, human HPF1 F139S (human, UniProt Q9NWY4 1-346, F139S).
T3 construct: HPF1, human; also called HPF F139S; not shown: His6, N-terminal, cleaved
T3 sequence (looked up): B1 chain with F139S

The target in another experiment is T4, human HPF1 K216E (human, UniProt Q9NWY4 1-346, K216E).
T4 construct: HPF1, human; not shown: His6, N-terminal, cleaved
T4 sequence (looked up): B1 chain with K216E

For another experiment, the target named is T5, human HPF1 R239A (human, UniProt Q9NWY4 1-346, R239A).
T5 construct: HPF1, human; not shown: His6, N-terminal, cleaved
T5 sequence (looked up): B1 chain with R239A

The target of a further experiment is T6, human HPF1 E284A (human, UniProt Q9NWY4 1-346, E284A).
T6 construct: HPF1, human; not shown: His6, N-terminal, cleaved
T6 sequence (looked up): B1 chain with E284A

The target of another experiment is T7, human HPF1 F280A (human, UniProt Q9NWY4 1-346, F280A).
T7 construct: HPF1, human; not shown: His6, N-terminal, cleaved
T7 sequence (looked up): B1 chain with F280A

In another experiment the target is T8, human HPF1 C285H (human, UniProt Q9NWY4 1-346, C285H).
T8 construct: HPF1, human; not shown: His6, N-terminal, cleaved
T8 sequence (looked up): B1 chain with C285H

B1: the “stoichiometry N” value in experiment [1] was 1.

Take B2: the Ka in experiment [2] turned out to be 758000 M⁻¹. For the same molecule, the Kd in experiment [2] is ~1300 nM; in experiment [3], 1500 nM; with human HPF1 K307S, 9300 nM; in the experiment with human HPF1 E138K, 1700 nM; with human HPF1 F139S it was 2400 nM; with human HPF1 K216E, 1400 nM. For the same molecule, the Kd with human HPF1 R239A was 2400 nM; with human HPF1 E284A, 300 nM; in the experiment with human HPF1 F280A, 6000 nM; with human HPF1 C285H, 28700 nM.

As usually defined, the stoichiometry N is the number of molecules, sites or subunits per partner or assembly. As usually defined, the Kd is the equilibrium constant for the complex coming apart. Higher therefore signals weaker binding.
